Experimental data reported in patent US20140315800A1 (published 2014).
Positions of bridges follow the written chain, without caps; N, C: chain ends. No end group written: not given here. *: point of attachment. βGlcNAc = CC(=O)N[C@@H]1[C@@H](O)[C@H](O)[C@@H](CO)O[C@H]1*; diGlcNAc = diGlcNAc sugar chain; disialo = disialo sugar chain; GlcNAc = N-acetylglucosamine

What was measured:
SSTR3 [1] = biological target: T1, SSTR3 (Human, UniProt P32745 1-418); assay: radioligand competition, membranes
SSTR2 = SSTR2 (Human, UniProt P30874 1-369); assay: cell-based or functional assay
SSTR5 = SSTR5 (Human, UniProt P35346 1-364); assay: radioligand competition, membranes
SSTR1-SSTR5 = assay: radioligand competition, membranes
SSTR3 [2] = biological target: T1, SSTR3; assay: cell-based or functional assay
SSTR1 [3] = biological target: T2, SSTR1 (Human, UniProt P30872 1-391); assay: radioligand competition, membranes
SSTR4 [4] = biological target: T3, SSTR4 (Human, UniProt P31391 1-388); assay: cell-based or functional assay
SSTR1 [5] = biological target: T2, SSTR1; assay: cell-based or functional assay
SSTR4 [6] = biological target: T3, SSTR4; assay: cell-based or functional assay; remark: listed apart in the source

Chain of SSTR2 (P30874 whole entry): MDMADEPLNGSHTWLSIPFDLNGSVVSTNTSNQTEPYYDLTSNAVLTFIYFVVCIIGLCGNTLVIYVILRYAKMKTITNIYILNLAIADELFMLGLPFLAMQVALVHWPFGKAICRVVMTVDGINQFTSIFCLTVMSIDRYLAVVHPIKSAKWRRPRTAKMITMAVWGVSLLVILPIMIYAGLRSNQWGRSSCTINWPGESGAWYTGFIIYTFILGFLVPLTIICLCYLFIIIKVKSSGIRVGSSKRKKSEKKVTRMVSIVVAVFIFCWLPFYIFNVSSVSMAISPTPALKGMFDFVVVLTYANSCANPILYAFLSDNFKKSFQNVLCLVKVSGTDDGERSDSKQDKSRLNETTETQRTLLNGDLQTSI
T1 sequence (P32745 whole entry): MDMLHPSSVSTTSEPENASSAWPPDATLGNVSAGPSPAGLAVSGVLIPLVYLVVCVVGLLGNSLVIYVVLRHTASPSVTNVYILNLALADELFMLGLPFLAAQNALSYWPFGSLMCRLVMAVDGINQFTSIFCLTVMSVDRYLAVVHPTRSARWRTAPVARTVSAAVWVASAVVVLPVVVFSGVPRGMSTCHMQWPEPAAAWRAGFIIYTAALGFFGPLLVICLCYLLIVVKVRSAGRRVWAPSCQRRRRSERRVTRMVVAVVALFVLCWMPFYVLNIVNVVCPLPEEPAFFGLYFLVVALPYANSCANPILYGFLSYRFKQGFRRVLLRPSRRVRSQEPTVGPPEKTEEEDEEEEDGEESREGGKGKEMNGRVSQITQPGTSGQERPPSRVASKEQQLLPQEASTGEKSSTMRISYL
T3 sequence (P31391 whole entry): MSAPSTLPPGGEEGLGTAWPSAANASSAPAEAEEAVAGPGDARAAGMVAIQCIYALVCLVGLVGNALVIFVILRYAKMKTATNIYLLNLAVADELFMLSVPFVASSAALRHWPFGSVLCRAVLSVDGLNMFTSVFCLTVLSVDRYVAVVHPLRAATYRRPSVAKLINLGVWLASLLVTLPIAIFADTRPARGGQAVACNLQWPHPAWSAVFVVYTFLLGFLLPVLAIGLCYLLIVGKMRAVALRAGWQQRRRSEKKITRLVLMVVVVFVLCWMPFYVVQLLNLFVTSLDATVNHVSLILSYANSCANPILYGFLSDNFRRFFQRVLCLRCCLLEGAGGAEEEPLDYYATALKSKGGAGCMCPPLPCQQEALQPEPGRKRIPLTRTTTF
T2 sequence (P30872 whole entry): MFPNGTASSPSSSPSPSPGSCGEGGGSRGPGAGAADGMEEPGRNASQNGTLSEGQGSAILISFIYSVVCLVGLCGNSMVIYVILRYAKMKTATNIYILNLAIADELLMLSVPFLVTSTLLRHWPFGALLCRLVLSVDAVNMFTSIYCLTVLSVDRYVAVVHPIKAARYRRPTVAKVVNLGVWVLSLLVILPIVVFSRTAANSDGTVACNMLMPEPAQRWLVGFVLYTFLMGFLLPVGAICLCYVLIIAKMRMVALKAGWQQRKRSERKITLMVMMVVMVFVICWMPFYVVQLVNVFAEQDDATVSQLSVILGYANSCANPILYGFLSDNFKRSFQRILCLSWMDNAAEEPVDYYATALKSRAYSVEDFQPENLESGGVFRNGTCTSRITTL
Chain of SSTR5 (P35346 whole entry): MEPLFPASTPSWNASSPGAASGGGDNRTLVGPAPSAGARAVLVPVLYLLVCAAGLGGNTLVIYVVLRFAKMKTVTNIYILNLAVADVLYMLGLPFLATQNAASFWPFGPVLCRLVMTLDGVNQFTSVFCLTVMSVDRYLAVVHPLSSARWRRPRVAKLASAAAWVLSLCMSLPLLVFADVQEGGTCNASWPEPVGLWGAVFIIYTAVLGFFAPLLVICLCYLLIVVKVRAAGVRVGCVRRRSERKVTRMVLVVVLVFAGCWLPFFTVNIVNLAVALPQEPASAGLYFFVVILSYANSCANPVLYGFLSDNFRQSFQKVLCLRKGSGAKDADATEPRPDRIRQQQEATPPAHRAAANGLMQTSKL

B1: N5C(disialo)•A9C(disialo)-SRIF28 (peptide)
peptide: SANSC(disialo)PAMC(disialo)PRERKAGCKNFFWKTFTSC
modifications: disulfide 17-28
binding result (SSTR3 [1]): binds

B2: S1C(disialo)•N19C(GlcNAc)-SRIF28 (peptide)
peptide: C(disialo)ANSNPAMAPRERKAGCKC(GlcNAc)FFWKTFTSC
modifications: disulfide 17-28
IC50 of agonist activity (cAMP) (SSTR2): 0.08 nM

B3: T26C(disialo)-SRIF28 (peptide)
peptide: SANSNPAMAPRERKAGCKNFFWKTFC(disialo sugar chain)SC
modifications: disulfide 17-28
IC50 (SSTR5): 400 nM

B4: S1C(disialo)•N5C(disialo)-SRIF28 (peptide)
peptide: C(disialo sugar chain)ANSC(disialo sugar chain)PAMAPRERKAGCKNFFWKTFTSC
modifications: disulfide 17-28
ratio of Ki to the Ki of unglycosylated SRIF14 (SSTR1-SSTR5): 15.7

B5: C(disialo)-K-SRIF14 (peptide)
peptide: C(disialo)KAGCKNFFWKTFTSC
modifications: disulfide 5-16
IC50 of agonist activity (cAMP) (SSTR3 [2]): 0.1 nM

B6: 3C(disialo)-R-K-SRIF14 (peptide)
peptide: CCCRKAGCKNFFWKTFTSC
modifications: three N-terminal Cys each with a disialo sugar chain (Cys-Cys-Cys-Arg-Lys- added to SRIF14); disulfide Cys17-Cys28 (SRIF28 numbering)
Ki (SSTR1 [3]): 270 nM

B7: S1-10C(disialo)-SRIF28 (peptide)
peptide: C(disialo)C(disialo)C(disialo)C(disialo)C(disialo)C(disialo)C(disialo)C(disialo)C(disialo)C(disialo)ANSNPAMAPRERKAGCKNFFWKTFTSC
modifications: disulfide 26-37
IC50 (SSTR5): 34.8 nM

B8: C(disialo)-SRIF14 (peptide)
peptide: CAGCKNFFWKTFTSC
modifications: disialo sugar chain on Cys added at the N-terminus of SRIF14; disulfide Cys17-Cys28 (SRIF28 numbering)
IC50 of agonist activity (cAMP) (SSTR4 [4]): 0.1 nM

B9: S1-5C(disialo)-SRIF28 (peptide)
peptide: CCCCCANSNPAMAPRERKAGCKNFFWKTFTSC
modifications: Ser 1 replaced by five consecutive Cys each with a disialo sugar chain; disulfide Cys17-Cys28 (SRIF28 numbering)
IC50 of agonist activity (cAMP) (SSTR1 [5]): 18 nM
IC50 of agonist activity (cAMP) (SSTR2): 0.81 nM
IC50 of agonist activity (cAMP) (SSTR3 [2]): 2 nM
IC50 of agonist activity (cAMP) (SSTR4 [4]): 0.27 nM

B10: C(disialo)-R-K-SRIF14 (peptide)
peptide: C(disialo)RKAGCKNFFWKTFTSC
modifications: disulfide 6-17
IC50 of cAMP production suppression (agonist activity) (SSTR4 [6]): 0.05 nM

B11: S1C(diGlcNAc)-SRIF28 (peptide)
peptide: C(diGlcNAc)ANSNPAMAPRERKAGCKNFFWKTFTSC
modifications: disulfide 17-28
IC50 of agonist activity (cAMP) (SSTR4 [4]): 0.05 nM

B12: S1-3C(asialo)-SRIF28 (peptide)
peptide: CCCANSNPAMAPRERKAGCKNFFWKTFTSC
modifications: Ser 1 replaced by three consecutive Cys each with an asialo sugar chain; disulfide Cys17-Cys28 (SRIF28 numbering)
IC50 of agonist activity (cAMP) (SSTR4 [4]): 0.1 nM

B13: S1C(GlcNAc)-SRIF28 (peptide)
peptide: C(βGlcNAc)ANSNPAMAPRERKAGCKNFFWKTFTSC
modifications: disulfide 17-28
IC50 of agonist activity (cAMP) (SSTR2): 0.04 nM
